Test results as given in the supplement of paper PMC10567573.
± gives the standard deviation.

Test: protein stability index of a GFP-peptide fusion (GPS, HEK-293T) (PSI 1-6); higher = more stable
[1] = treatment: DMSO, c terminus: a fixed tail appended
[2] = treatment: MLN4924 1 uM, 8 h, c terminus: a fixed tail appended
[3] = treatment: DMSO, c terminus: native
[4] = treatment: MLN4924 1 uM, 8 h, c terminus: native
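Further: 24-mer peptide tiles fused after GFP, lentivirally expressed, FACS-sorted into six equal bins by GFP/DsRed ratio, decoded by Illumina sequencing, PSI is the read-weighted mean bin number.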

Row | Sequence | protein stability index [1] | protein stability index [2] | protein stability index [3] | protein stability index [4]
1 | HKVAPLVQSLCAKHGIEYQSKPLL [FADS1] | 2.68 ± 0.34 | 3 ± 0.17 | – | –
2 | SQPGNAVIDKETIDLLAFTSVAEL [SDE2] | 3.43 ± 0.3 | 3.46 ± 0.32 | – | –
3 | MRMSDTVTVKDETATMKDLEAEVK [R3HDM1] | 5.46 ± 0.072 | 5.37 ± 0.092 | – | –
4 | NKTEVTPRLWTTCRDGEVLLRLSK [ACSBG2] | 2.4 ± 0.22 | 2.37 ± 0.21 | – | –
5 | VVEEVRRRATSGGKWPQVLFFPEG [LPCAT4] | 2.75 ± 0.31 | 3.24 ± 0.26 | – | –
6 | GGSELGGWSLGRWTHDGIDINNNF [CPXM2] | 3.06 ± 0.031 | 2.64 ± 0.054 | – | –
7 | DKTDISSGRARQQDEEMLELPAPA [MLH1] | 5.42 ± 0.36 | – | – | –
8 | DLGNACWVHKHFTEDIQTRQYRSI [SRPK2] | 2.61 ± 0.23 | 2.72 ± 0.11 | – | –
9 | LGLVGYYIFRVANHQKDLFRRTDG [DHCR7] | 2.45 ± 0.2 | 2.6 ± 0.31 | – | –
10 | YPIIFVYYLRKGKKINSNQLENEQ [SPANXN3] | 2.37 ± 0.33 | 2.14 ± 0.26 | – | –
11 | VLEQFLTILPQEIQSRVQELHPES [ZNF263] | 2.56 ± 0.31 | 2.53 ± 0.39 | – | –
12 | MGQVLPVFAHCKEAPSTASSTPDS [RTN2] | 4.67 ± 0.25 | 4.83 ± 0.23 | – | –
13 | WQLFLAHNIPLETIIPILQHLKYK [INTS3] | 2.83 ± 0.44 | 2.63 ± 0.59 | – | –
14 | EPASAREAPASVVPFVRVKREREV [USP39] | 4.93 ± 0.3 | 4.87 ± 0.58 | – | –
15 | PYSTVDNPVYYGPSDFFIGAVIEV [EFHC1] | 2.8 ± 0.48 | 3.13 ± 0.53 | – | –
16 | IIYVASNHFVWRLIPVPMATQIQQ [VPS39] | 3.19 ± 0.35 | 3.09 ± 0.65 | – | –
17 | LLMTSGVVLCEGVKWLSFHSGYDF [CNOT7] | 3.33 ± 0.37 | 2.9 ± 0.39 | – | –
18 | IQWKNHDQNNHNTDRSSHKDSMN [EDNRA] | – | – | 5.36 ± 0.29 | 5.49 ± 0.23
19 | STYRPLPDPSVWSRRYTEMALPFF [MYORG] | 2.36 ± 0.4 | 2.22 ± 0.13 | – | –
20 | KDTDLARVRRFQVVEVTKGILEHV [M1AP] | 2.55 ± 0.47 | 2.86 ± 0.56 | – | –
21 | GKTKKDYQEASNLEQFVTRFLLKE [NECAB1] | 2.97 ± 0.3 | 3.36 ± 0.37 | – | –
22 | QVIHPQEFRRWRDTGVAFELRDSS [DNAAF3] | 3.29 ± 0.36 | 3.31 ± 0.32 | – | –
23 | DSVLKGMQAASSKMVSAEISENRK [SDE2] | 4.31 ± 0.23 | 4.68 ± 0.33 | – | –

Row | Sequence | protein stability index [1] | protein stability index [2] | protein stability index [3] | protein stability index [4]
24 | LKVGGILVMPLEEKLTKITRTGPS [PCMTD2] | 2.4 ± 0.21 | 2.16 ± 0.41 | – | –
25 | KDAAKQIAWIKDKLLHIYYQNSID [PDS5B] | 1.78 ± 0.31 | 2.39 ± 0.26 | – | –
26 | SSVECYNLETNEWRYVSSLPQPLA [KLHL14] | 2.6 ± 0.19 | 2.92 ± 0.24 | – | –
27 | IGCGNFGELRLGKNLYTNEYVAIK [CSNK1G3] | 2.07 ± 0.18 | 2.12 ± 0.44 | – | –
28 | LVGIFILAVSRPRSSPDDLKALTR [SCARA5] | 2.84 ± 0.39 | 2.84 ± 0.69 | – | –
29 | PCAGLNCQALDANLDANLAFASFT [TLE6] | 2.98 ± 0.33 | 2.99 ± 0.28 | – | –
30 | PQKLKEVISLEKLNVGNERYVFEA [GAN] | 2.96 ± 0.21 | 2.92 ± 0.41 | – | –
31 | LELHDYHDIIKHPMDLSTVKRKMD [BRD3] | 4.05 ± 0.19 | 3.98 ± 0.34 | – | –
32 | RRLYEKKIFEYETQRRRLSPPSSS [EMD] | 3.25 ± 0.26 | 3.35 ± 0.48 | – | –
33 | KQNPSRQEVTKLQQQVKTNGAGVT [FBXO28] | 4.68 ± 0.2 | 4.47 ± 0.35 | – | –
34 | KQIIRKHAQTFVALCATDVKFISN [CCND1] | 2.26 ± 0.1 | 2.39 ± 0.055 | – | –
35 | DATLSLKQTILDKEEKQRRNVAKN [TTC32] | 4.99 ± 0.28 | 4.91 ± 0.19 | – | –
36 | APLLPHITATSLLGTRESDTEVIT [BCL2L13] | 4.58 ± 0.26 | 4.47 ± 0.2 | – | –
37 | IYSVVDLGMYQKVTSYCRSATLVG [SLC19A2] | 2.69 ± 0.42 | 2.74 ± 0.69 | – | –
38 | DAAEEEKYDMEVRVQKTSKELEDM [TNNI2] | 5.45 ± 0.24 | 5.46 ± 0.17 | – | –
39 | NSMPVDNRNHNEGMVTRCIIEVLS [CHGB] | 2.77 ± 0.14 | 2.59 ± 0.3 | – | –
40 | QRAQAEVLQSVRELSRSRKLYGQR [FCHSD1] | 3.76 ± 0.2 | 3.85 ± 0.36 | – | –
41 | RGGSLLAGGGGFGGGSLSGGGGSR [KRT15] | 3.32 ± 1.1 | 3.95 ± 0.34 | – | –
42 | VLGEDVIVNDELYLNGASVLPHKS [GMPPB] | 4.23 ± 0.28 | 4.31 ± 0.18 | – | –
43 | VEKLKQMQEFFGLKVTGKPDAETL [MMP1] | 3.63 ± 0.23 | 3.83 ± 0.16 | – | –
44 | RYISMSVWTSPRRLVELAGQSLLK [PRAME] | 2.89 ± 0.1 | 2.96 ± 1.2 | – | –
45 | KSVLIPVYGVSKETFLSFLEYLYT [RHOBTB3] | 2.24 ± 0.38 | 2.22 ± 0.15 | – | –
46 | YQSGGRIRRPVNVPIDIFSEEIRF [KCNA3] | 2.49 ± 0.43 | 3.11 ± 0.37 | – | –

Row | Sequence | protein stability index [1] | protein stability index [2] | protein stability index [3] | protein stability index [4]
47 | QLRKQKKKTGKSSTTALGDKQRKA [ELOA2] | 4.73 ± 0.51 | 4.82 ± 0.39 | – | –
48 | LQLLREENRALQQLLEQKQAYWAQ [CBY2] | 2.62 ± 0.18 | 2.94 ± 0.31 | – | –
49 | DKVIELHKSHRGMTPAEAEMHFLE [EPB41L3] | 4.51 ± 0.22 | 4.38 ± 0.14 | – | –
50 | HALATRASDYSKKSNVLKLKTADW [PSD2] | 3.13 ± 0.18 | 3.17 ± 0.17 | – | –
51 | RFRDFVDALEDSLEEVAVQQTGDD [PBXIP1] | 4.87 ± 0.44 | 4.9 ± 0.27 | – | –
52 | LKVRYRERITILRGNHESRQITQV [PPP2CA] | 2.37 ± 0.19 | 2.42 ± 0.32 | – | –
53 | SMEGVRWAFSCGTWLPSRAEWLLA [AASDHPPT] | 2.65 ± 0.57 | 2.79 ± 0.52 | – | –
54 | KSNQPKSLEDLIFESLPENASHKL [ATE1] | 4.28 ± 0.21 | 4.5 ± 0.14 | – | –
55 | LEANADTSVEEESFGPQPISRLEQ [RAD51] | 5.38 ± 0.2 | 5.44 ± 0.18 | – | –
56 | LISHVLEQNQEGDAAYRKALDLAR [AUH] | 3.38 ± 0.55 | 3.09 ± 0.19 | – | –
57 | CAGPLEDAVTIPCGHTFCRLCLPA [TRIM15] | 2.69 ± 0.21 | 2.67 ± 0.37 | – | –
58 | VHIETFTTRHGEVGSALHRESFTS [C10orf62] | 2.57 ± 0.35 | 2.47 ± 0.58 | – | –
59 | LVSLTSRNPDQRKESLCISITVSK [FBXO34] | 2.26 ± 0.1 | 2.47 ± 0.15 | – | –
60 | KDIQPYMRRMVATWMLEVCEEQKC [CCND2] | 2.33 ± 0.24 | 2.65 ± 0.3 | – | –
61 | IWFRVPYSIISLLLKDKVRERIQI [PTPN9] | 2.56 ± 0.65 | 2.77 ± 1.5 | – | –
62 | IKSKKKLLQIIDTTLLKCYLHTNV [VPS39] | 3.04 ± 0.37 | 2.86 ± 0.52 | – | –
63 | NAAHSLLSTNDKTIKLWKITERDK [PPP2R2C] | 3.68 ± 0.085 | 3.82 ± 0.27 | – | –
64 | TVTSLQVPVLKPMDLMVEVSPRRI [PPP2R2C] | 2.52 ± 0.18 | 2.65 ± 0.32 | – | –
65 | ATKTEPKKLEKYLQKLSALLMTAD [ELOA2] | 2.54 ± 0.59 | 2.31 ± 0.54 | – | –
66 | YEAQDGRGPDNALLEATGGAAGRS [KCTD10] | 5.37 ± 0.34 | 5.41 ± 0.25 | – | –
67 | DHWNNEKERILLVTDKTLLICKYD [TPRG1] | 2.18 ± 0.32 | 2.47 ± 0.15 | – | –
68 | LPVETLGPASRMDPESERALQAPH [PBXIP1] | 4.58 ± 0.43 | 4.84 ± 0.33 | – | –
69 | LATQSLTVETCRALGKLLPRETLC [LRRC45] | 2.44 ± 0.49 | 2.48 ± 0.45 | – | –

Row | Sequence | protein stability index [1] | protein stability index [2] | protein stability index [3] | protein stability index [4]
70 | KIMGVEEEDDDDDDDDNLPQLKKE [ANKRD40] | 5.6 ± 0.24 | 5.46 ± 0.19 | – | –
71 | LEIELQSQLSMKASLENSLEETKG [KRT16] | 5.28 ± 0.066 | 5.16 ± 0.17 | – | –
72 | QIEKKEKKLHKIQNKAQRQKDLIM [TAF7L] | 3.64 ± 0.32 | 3.85 ± 0.28 | – | –
73 | SNVRGSLNVNLNSVVLRRARGGAV [DUSP5] | 3.74 ± 0.24 | 4.1 ± 0.29 | – | –
74 | DPMLDFYSDKNAKLTKESYPVVVA [TENT5D] | 3.77 ± 0.26 | 3.85 ± 0.23 | – | –
75 | PAPERTMAGLSKEPNTLRAPRVRT [VENTX] | 4.86 ± 0.29 | 4.85 ± 0.32 | – | –
76 | CGACLTQLFFFHLFVGVDCFLLTA [OR3A1] | 3.07 ± 0.2 | 3.02 ± 0.33 | – | –
77 | HTDSKYEHAIAEAQKNMYFKTRLK [ZNF396] | 3.8 ± 0.22 | 3.5 ± 0.32 | – | –
78 | FRDAAEEGGTAVTGGQTVVNPWII [SEPHS2] | 3.45 ± 0.2 | 3.54 ± 0.26 | – | –
79 | QSGRHLQTHSNTIVVSLQSKLASM [STX5] | 2.79 ± 0.36 | 2.97 ± 0.28 | – | –
80 | EQSSARQKASLLIQQALTMFPGVL [TCF25] | 2.51 ± 0.3 | 2.54 ± 0.3 | – | –
81 | TDLPECEQSSARQKASLLIQQALT [TCF25] | 3.47 ± 0.36 | 3.66 ± 0.36 | – | –
82 | DDLMGILCKSVLEIERAIKQTQCP [FEM1C] | 2.07 ± 0.22 | 2.46 ± 0.29 | – | –
83 | YAVLAAEPELQVGIDIMKTSFPGR [AASDHPPT] | 2.61 ± 0.28 | 2.73 ± 0.4 | – | –
84 | SIFYDLPQGSGFCLGQLNLEQRSE [SMAD6] | 3.21 ± 0.21 | 3.45 ± 0.25 | – | –
85 | RAKVQPQARKKEMEMRQLQRGPA [CPN1] | – | – | 3.26 ± 0.43 | 3.11 ± 0.18
86 | KYSLLKLTALLEKYTPSNKHGFSW [DLC1] | 2.65 ± 0.42 | 2.6 ± 0.61 | – | –
87 | RSDADLVVFLSPLTTFQDQLNRRG [OAS1] | 2.27 ± 0.22 | 2.33 ± 0.31 | – | –
88 | ERSRDVVDEVSVSLRLWDTFGDHH [RHOBTB1] | 3.27 ± 0.2 | 3.32 ± 0.31 | – | –
89 | YRHLLEGEDCKLPPQPCATACKPV [KRT36] | 3.97 ± 0.2 | 3.93 ± 0.11 | – | –
